Experimental findings from PMC12146848, “Deciphering meiotic chromatin organization by SYCP3” are described below.

Data set [1] addresses T1, SYCP3 (Mus musculus, UniProt P70281).
T1 sequence: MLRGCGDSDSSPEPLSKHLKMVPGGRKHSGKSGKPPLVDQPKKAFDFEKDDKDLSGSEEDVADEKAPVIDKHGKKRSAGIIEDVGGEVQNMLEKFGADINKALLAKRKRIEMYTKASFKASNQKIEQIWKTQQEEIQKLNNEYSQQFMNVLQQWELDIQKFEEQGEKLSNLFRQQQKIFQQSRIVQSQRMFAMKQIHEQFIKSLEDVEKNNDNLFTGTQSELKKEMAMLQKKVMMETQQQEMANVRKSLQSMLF
Put plainly: competition; 50-fold excess against labeled WT Probe; higher affinity than WT; Beyotime GS008 Gel-Shift binding buffer (composition and pH not given), 15 ul, 1 h at room temperature, 4% polyacrylamide gel. The conditions noted are these: protein: recombinant; tags: C-terminal 6xHis; chain copies: 4; label: unlabeled; blunt.

The target of data set [2] is T1, SYCP3. Description: EMSA; stronger than WT Probe; Beyotime GS008 Gel-Shift binding buffer (composition and pH not given), 15 ul, 1 h at room temperature, 4% polyacrylamide gel. The conditions noted are these: protein: recombinant; tags: C-terminal 6xHis; chain copies: 4; label: 3' biotin-dUTP added by TdT on both strands; blunt before 3' TdT labeling. (In general: In EMSA bound probe runs differently from free probe, usually more slowly.)

The target in data set [3] is T1, SYCP3. Description: EMSA; 0.2 uM probe, 1 ug SYCP3 in 15 ul; Beyotime GS008 Gel-Shift binding buffer (composition and pH not given), 15 ul, 1 h at room temperature, 4% polyacrylamide gel. The conditions noted are these: protein: recombinant; tags: C-terminal 6xHis; chain copies: 4; label: 3' biotin-dUTP added by TdT on both strands; blunt before 3' TdT labeling.
Data set [4] addresses T1, SYCP3. Put plainly: competition; 50-fold excess against labeled WT Probe; efficient competition; Beyotime GS008 Gel-Shift binding buffer (composition and pH not given), 15 ul, 1 h at room temperature, 4% polyacrylamide gel. As to conditions: protein: recombinant; tags: C-terminal 6xHis; chain copies: 4; label: unlabeled; blunt.

B1: Mut competitor (dsDNA)
DNA 1: GTGACTTCAACAGCCAGGTCTTAATTTCAAATGCATTGAATAGATGTCTTGTCTCCCAGA
DNA 2: TCTGGGAGACAAGACATCTATTCAATGCATTTGAAATTAAGACCTGGCTGTTGAAGTCAC
In the case of B1, the binding result with SYCP3 [1] is “binds”.

B2: Mut probe (dsDNA)
DNA 1: B1 DNA 1
DNA 2: B1 DNA 2
As for B2, the binding result with SYCP3 [2] is listed as “binds”.

B3: WT Probe (dsDNA)
DNA 1: ACAGTCCTGGTGATTGAACTCCGGCCCTGGGCATGCCAGGCGAGCACTCCACTCTTTGAG
DNA 2: CTCAAAGAGTGGAGTGCTCGCCTGGCATGCCCAGGGCCGGAGTTCAATCACCAGGACTGT
B3: in the data set with SYCP3 [3], the binding result is on record as “binds”.

B4: WT competitor (dsDNA)
DNA 1: B3 DNA 1
DNA 2: B3 DNA 2
Take B4: the binding result in the data set with SYCP3 [4] was “binds”.
